The record followed here is PMC9604439, “Mutation Hotspot for Changing the Substrate Specificity of β-N-Acetylhexosaminidase: A Library of GlcNAcases” (International Journal of Molecular Sciences, 2022).

Sequences and labels used below:
B1: TfHex (β-N-acetylhexosaminidase from Talaromyces flavus) (Talaromyces flavus; E332A) (protein)
chain: VAVNPLPAPRSITWGTSGPISVPHNVDVKLPKNAIINDAWERAWTSIKQLRWVPQATEAPISSYEPFPTVAPTSASTASSTPLPSSSAAAVAARSQKRGHQKGSHEKRGHSQSTLRTVTVTVSDLNADLQAEVDESYTLVLDSGSSTLAITANTTWGALHAFTTLQQLVIYQDNSLIIEQPVHIEDSPLYPWRGVMIDTGRNFITVPKIKEQIDGMALSKLNILHWHLDDSQSWPVHMDTYPQMTNDAYSPWQTYSHEDIKDIIEYARARAVRVVPEVDMPGHSAAGWQQVDPSIVACAHSWWSNDNWPYHTAVAPTPGQLDPLNNKTYGVVEKVYNELSGIFTDDFFHVGGDELQTGCYNFSTYVSDYLAADPSRTYNDVTQYWVDHAFPIFKKIQNRKLVIWEDLIINNPHAPNVSTENLLVQSWNNGLTNINNLTNLGYDVLVSSSDFMYLDCGYGGFVTNDPRYDVMVNPDAVDGLANFNWGGNGGSWCAPYKTWQRIYDYDFTTNLTDAQAAHVKGAVAPLWSEQVDDTVISGKMWPRAAALAELVWSGNKDPKTGDKRTTYMTQRILNFREYLVANGVQAAPLVPKYCLQHPHSCDLYYDQTAVV
notes: secreted via alpha-factor, pPICZαA, Pichia pastoris KM71H, cation-exchange purified; tetramer of two catalytic subunits and two non-covalently linked propeptides
B2: TfHex (β-N-acetylhexosaminidase from Talaromyces flavus) (Talaromyces flavus; E332N) (protein)
chain: VAVNPLPAPRSITWGTSGPISVPHNVDVKLPKNAIINDAWERAWTSIKQLRWVPQATEAPISSYEPFPTVAPTSASTASSTPLPSSSAAAVAARSQKRGHQKGSHEKRGHSQSTLRTVTVTVSDLNADLQAEVDESYTLVLDSGSSTLAITANTTWGALHAFTTLQQLVIYQDNSLIIEQPVHIEDSPLYPWRGVMIDTGRNFITVPKIKEQIDGMALSKLNILHWHLDDSQSWPVHMDTYPQMTNDAYSPWQTYSHEDIKDIIEYARARAVRVVPEVDMPGHSAAGWQQVDPSIVACAHSWWSNDNWPYHTAVNPTPGQLDPLNNKTYGVVEKVYNELSGIFTDDFFHVGGDELQTGCYNFSTYVSDYLAADPSRTYNDVTQYWVDHAFPIFKKIQNRKLVIWEDLIINNPHAPNVSTENLLVQSWNNGLTNINNLTNLGYDVLVSSSDFMYLDCGYGGFVTNDPRYDVMVNPDAVDGLANFNWGGNGGSWCAPYKTWQRIYDYDFTTNLTDAQAAHVKGAVAPLWSEQVDDTVISGKMWPRAAALAELVWSGNKDPKTGDKRTTYMTQRILNFREYLVANGVQAAPLVPKYCLQHPHSCDLYYDQTAVV
notes: as for B1
B3: TfHex (β-N-acetylhexosaminidase from Talaromyces flavus) (Talaromyces flavus; E332G) (protein)
chain: VAVNPLPAPRSITWGTSGPISVPHNVDVKLPKNAIINDAWERAWTSIKQLRWVPQATEAPISSYEPFPTVAPTSASTASSTPLPSSSAAAVAARSQKRGHQKGSHEKRGHSQSTLRTVTVTVSDLNADLQAEVDESYTLVLDSGSSTLAITANTTWGALHAFTTLQQLVIYQDNSLIIEQPVHIEDSPLYPWRGVMIDTGRNFITVPKIKEQIDGMALSKLNILHWHLDDSQSWPVHMDTYPQMTNDAYSPWQTYSHEDIKDIIEYARARAVRVVPEVDMPGHSAAGWQQVDPSIVACAHSWWSNDNWPYHTAVGPTPGQLDPLNNKTYGVVEKVYNELSGIFTDDFFHVGGDELQTGCYNFSTYVSDYLAADPSRTYNDVTQYWVDHAFPIFKKIQNRKLVIWEDLIINNPHAPNVSTENLLVQSWNNGLTNINNLTNLGYDVLVSSSDFMYLDCGYGGFVTNDPRYDVMVNPDAVDGLANFNWGGNGGSWCAPYKTWQRIYDYDFTTNLTDAQAAHVKGAVAPLWSEQVDDTVISGKMWPRAAALAELVWSGNKDPKTGDKRTTYMTQRILNFREYLVANGVQAAPLVPKYCLQHPHSCDLYYDQTAVV
notes: as for B1
B4: TfHex (β-N-acetylhexosaminidase from Talaromyces flavus) (Talaromyces flavus; E332T) (protein)
chain: VAVNPLPAPRSITWGTSGPISVPHNVDVKLPKNAIINDAWERAWTSIKQLRWVPQATEAPISSYEPFPTVAPTSASTASSTPLPSSSAAAVAARSQKRGHQKGSHEKRGHSQSTLRTVTVTVSDLNADLQAEVDESYTLVLDSGSSTLAITANTTWGALHAFTTLQQLVIYQDNSLIIEQPVHIEDSPLYPWRGVMIDTGRNFITVPKIKEQIDGMALSKLNILHWHLDDSQSWPVHMDTYPQMTNDAYSPWQTYSHEDIKDIIEYARARAVRVVPEVDMPGHSAAGWQQVDPSIVACAHSWWSNDNWPYHTAVTPTPGQLDPLNNKTYGVVEKVYNELSGIFTDDFFHVGGDELQTGCYNFSTYVSDYLAADPSRTYNDVTQYWVDHAFPIFKKIQNRKLVIWEDLIINNPHAPNVSTENLLVQSWNNGLTNINNLTNLGYDVLVSSSDFMYLDCGYGGFVTNDPRYDVMVNPDAVDGLANFNWGGNGGSWCAPYKTWQRIYDYDFTTNLTDAQAAHVKGAVAPLWSEQVDDTVISGKMWPRAAALAELVWSGNKDPKTGDKRTTYMTQRILNFREYLVANGVQAAPLVPKYCLQHPHSCDLYYDQTAVV
notes: as for B1

Substrate in this data set: CC(=O)N[C@H]1[C@H](Oc2ccc([N+](=O)[O-])cc2)O[C@H](CO)[C@@H](O)[C@@H]1O
As to the kind of experiment: discontinuous p-nitrophenolate release assay, non-linear regression. Format: biochemical, Talaromyces flavus. The note with it: McIlvaine buffer pH 5.0, 25 °C.
Turning to B1, the Michaelis-Menten constant (Km) was 880 ± 70 µM and the catalytic constant (kcat) came to 30 ± 1 s⁻¹.
The corresponding values for B2 are 1220 ± 70 µM and 22.5 ± 0.4 s⁻¹.
Take B3: the Km was found to be 1800 ± 200 µM and the kcat was found to be 51 ± 2 s⁻¹.
Consider B4, for which the Michaelis constant (Km) was determined as 800 ± 100 µM and the kcat worked out at 13.3 ± 0.4 s⁻¹.
